For assay [1], the system named is muscarinic receptor mediated airway resistance. The assay can be described thus: airway resistance (Penh) in naive mice, methacholine challenged. Type of assay: in vivo, BALB/c mice. To be noted: for dosage level sufficient for reduced airway responsiveness: intranasal once daily for three days.
The test system is the same in assay [2]. Format: in vivo, BALB/c mice. To be noted: Example 5, 5, 10 and 20 mg/ml carbachol.

Like-named read-outs stand apart in the source and are kept apart here.

B1: DAS181: fusion protein comprising a catalytic domain of a sialidase, and an anchoring domain (SEQ ID NO:21) (protein)
chain: MGDHPQATPAPAPDASTELPASMSQAQHLAANTATDNYRIPAITTAPNGDLLISYDERPKDNGNGGSDAPNPNHIVQRRSTDGGKTWSAPTYIHQGTETGKKVGYSDPSYVVDHQTGTIFNFHVKSYDQGWGGSRGGTDPENRGIIQAEVSTSTDNGWTWTHRTITADITKDKPWTARFAASGQGIQIQHGPHAGRLVQQYTIRTAGGAVQAVSVYSDDHGKTWQAGTPIGTGMDENKVVELSDGSLMLNSRASDGSGFRKVAHSTDGGQTWSEPVSDKNLPDSVDNAQIIRAFPNAAPDDPRAKVLLLSHSPNPRPWSRDRGTISMSCDDGASWTTSKVFHEPFVGYTTIAVQSDGSIGLLSEDAHNGADYGGIWYRNFTMNWLGEQCGQKPAKRKKKGGKNGKNRRNRKKKNP
In the case of B1, the “difference in airway resistance between dose groups” value in assay [1] (Example 3, 0.06, 0.1, 0.6 mg/kg) is recorded as “No difference was observed between the different dose groups”; in assay [1] (Example 8, 0.0008, 0.004, 0.02, 0.1 mg/kg) it was “No difference was observed between the different dose groups”. Moreover, the “airway resistance vs PBS” value in assay [1] (Example 3, 0.06, 0.1 or 0.6 mg/kg intranasal once daily for three days, 48 mg/ml Mch) is “significantly reduced airway resistance”; in assay [1] (Example 7, 0.6 mg/kg, three days of treatment, 24 and 48 mg/ml Mch), “significantly reduced airway resistance”; in assay [1] (Example 7, 0.6 mg/kg, two days of treatment, 3, 6 and 48 mg/ml methacholine), “not at 3, 6 and 48 mg/ml”; in assay [1] (Example 7, 0.6 mg/kg, two days of treatment, 12 and 24 mg/ml methacholine), “appears to reduce airway resistance”; in assay [1] (Example 8, 0.0008, 0.004, 0.02 or 0.1 mg/kg once daily for three days, 24 and 48 mg/ml Mch), “significantly reduced airway resistance”; in assay [1] (Example 9, all doses 10 ng/kg to 0.1 mg/kg, 24 mg/ml Mch), “reduced airway resistance”. Further, the “airway resistance vs PBS” value in assay [2] (0.6 mg/kg once daily for three days) was “significantly reduced airway resistance”. In addition, the results for the “dosage level sufficient for reduced airway responsiveness” value in assay [1] (Example 3) and in assay [1] (Example 8) were not above 0.06 mg/kg and not above 0.0008 mg/kg, respectively. For the same molecule, in assay [1] (Example 4, 0.6 mg/kg once daily for three days, 6, 12, 24 and 48 mg/ml Mch), the “airway resistance vs PBS control” value was “significantly reduced airway resistance”. In addition, the “airway resistance vs baseline” value in assay [1] (Example 4, 0.6 mg/kg, 3 and 6 mg/ml methacholine) was “did not increase airway resistance above baseline”; in assay [1] (Example 4, 0.6 mg/kg, 12, 24 and 48 mg/ml methacholine) it was “increased airway resistance above baseline”; in assay [2] (0.6 mg/kg), “increased airway resistance above baseline”. For the same molecule, in assay [1] (Example 7, 0.6 mg/kg, one day of treatment), the “airway resistance in response to Mch challenge vs PBS” value was “no difference in airway resistance”. For the same molecule, the “average percentage change Penh (increase in airway resistance over baseline)” value is reported as 525-530% in assay [1] (Example 9, 10 ng/kg once daily three days, 24 mg/ml Mch, PBS 550-560%); 450% in assay [1] (Example 9, 0.1 μg/kg, 24 mg/ml Mch); 525% in assay [1] (Example 9, 1 μg/kg, 24 mg/ml Mch); 225% in assay [1] (Example 9, 10 μg/kg, 24 mg/ml Mch); 200% in assay [1] (Example 9, 0.1 mg/kg, 24 mg/ml Mch). Besides, in assay [1] (Example 9, dose levels of 0.01 or 0.1 mg/kg), the “airway resistance in response to Mch” value was “significantly reduced airway resistance”.
